Measurements reported in PMC10397247.
Blank lines part the entries; values can stand above or below the binder they belong to.

Assays:
Test in all cases: two-hybrid library CCNG1;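 also: natural log of median RNA to DNA barcode read ratio; higher means stronger binding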
[1] = biological target: T1, O9-bN
T1 chain: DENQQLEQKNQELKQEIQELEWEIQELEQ

[2] = biological target: T2, O7-bN
T2 chain: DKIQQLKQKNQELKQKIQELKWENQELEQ

[3] = biological target: T3, O6-bN
T3 chain: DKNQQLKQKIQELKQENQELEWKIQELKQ

[4] = biological target: T4, O8-bN
T4 chain: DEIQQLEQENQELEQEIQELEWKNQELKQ

[5] = biological target: T5, O5-bN
T5 chain: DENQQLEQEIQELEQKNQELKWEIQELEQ

[6] = biological target: T6, O4-bN
T6 chain: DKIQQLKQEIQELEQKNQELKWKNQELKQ

[7] = biological target: T7, 4H584-bN
T7 chain: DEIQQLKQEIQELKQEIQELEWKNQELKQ

[8] = biological target: T8, 4H619-bN
T8 chain: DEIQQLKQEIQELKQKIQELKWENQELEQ

[9] = biological target: T9, P7A
T9 chain: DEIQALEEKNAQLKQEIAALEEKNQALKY

[10] = biological target: T10, 4H850-bN
T10 chain: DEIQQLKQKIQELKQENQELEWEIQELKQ

[11] = biological target: T11, 4H570-bN
T11 chain: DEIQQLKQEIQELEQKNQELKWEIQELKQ

[12] = biological target: T12, 4H906-bN
T12 chain: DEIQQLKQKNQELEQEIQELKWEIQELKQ

[13] = biological target: T13, O8-bH
T13 chain: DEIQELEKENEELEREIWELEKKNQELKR

[14] = biological target: T14, O6-bH
T14 chain: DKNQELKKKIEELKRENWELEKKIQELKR

[15] = biological target: T15, O7-bH
T15 chain: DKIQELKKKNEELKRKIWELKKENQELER

[16] = biological target: T16, O5-bH
T16 chain: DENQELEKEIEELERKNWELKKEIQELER

[17] = biological target: T17, O9-bH
T17 chain: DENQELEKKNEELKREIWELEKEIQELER

[18] = biological target: T18, O4-bH
T18 chain: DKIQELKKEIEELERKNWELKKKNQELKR

[19] = biological target: T19, 4H953-bA
T19 chain: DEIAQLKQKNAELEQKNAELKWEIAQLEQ

[20] = biological target: T20, 4H331-bA
T20 chain: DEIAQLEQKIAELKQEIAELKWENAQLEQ

[21] = biological target: T21, 4H457-bA
T21 chain: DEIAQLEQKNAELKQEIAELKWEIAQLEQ

[22] = biological target: T22, 4H3427-bA
T22 chain: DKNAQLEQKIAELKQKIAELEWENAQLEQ

[23] = biological target: T23, 4H918-bA
T23 chain: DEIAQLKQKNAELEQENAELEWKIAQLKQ

[24] = biological target: T24, 4H754-bA
T24 chain: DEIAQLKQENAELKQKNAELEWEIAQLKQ

[25] = biological target: T25, 4H568-bA
T25 chain: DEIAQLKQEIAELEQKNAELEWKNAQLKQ

[26] = biological target: T26, 4H908-bA
T26 chain: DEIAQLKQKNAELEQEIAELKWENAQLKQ

[27] = biological target: T27, 4H3926-bA
T27 chain: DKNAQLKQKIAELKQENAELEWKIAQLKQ

[28] = biological target: T28, 4H780-bA
T28 chain: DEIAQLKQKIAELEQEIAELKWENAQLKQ

[29] = biological target: T29, 4H338-bA
T29 chain: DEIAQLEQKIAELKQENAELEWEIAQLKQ

[30] = biological target: T30, 4H883-bA
T30 chain: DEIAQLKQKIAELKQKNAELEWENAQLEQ

[31] = biological target: T31, 4H855-bA
T31 chain: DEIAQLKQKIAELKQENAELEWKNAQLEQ

[32] = biological target: T32, 4H717-bA
T32 chain: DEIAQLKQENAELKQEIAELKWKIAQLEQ

[33] = biological target: T33, 4H797-bA
T33 chain: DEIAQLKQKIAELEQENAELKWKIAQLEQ

[34] = biological target: T34, 4H683-bA
T34 chain: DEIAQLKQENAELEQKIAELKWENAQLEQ

[35] = biological target: T35, 4H967-bA
T35 chain: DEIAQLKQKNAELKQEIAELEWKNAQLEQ

[36] = biological target: T36, 4H3185-bA
T36 chain: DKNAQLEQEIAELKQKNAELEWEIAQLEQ

[37] = biological target: T37, 4H687-bA
T37 chain: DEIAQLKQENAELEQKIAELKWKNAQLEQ

[38] = biological target: T38, 4H3112-bA
T38 chain: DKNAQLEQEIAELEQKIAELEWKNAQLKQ

[39] = biological target: T39, 4H4073-bA
T39 chain: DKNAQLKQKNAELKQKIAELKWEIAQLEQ

[40] = biological target: T40, 4H454-bA
T40 chain: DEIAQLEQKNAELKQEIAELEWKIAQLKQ

[41] = biological target: T41, 4H346-bA
T41 chain: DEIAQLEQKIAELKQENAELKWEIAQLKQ

[42] = biological target: T42, 4H575-bA
T42 chain: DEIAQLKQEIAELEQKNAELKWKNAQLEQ

[43] = biological target: T43, 4H607-bA
T43 chain: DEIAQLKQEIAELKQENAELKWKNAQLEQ

[44] = biological target: T44, 4H72-bA
T44 chain: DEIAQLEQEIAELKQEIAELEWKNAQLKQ

[45] = biological target: T45, 4H3354-bA
T45 chain: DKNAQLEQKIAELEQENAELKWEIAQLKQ

[46] = biological target: T46, 4H4001-bA
T46 chain: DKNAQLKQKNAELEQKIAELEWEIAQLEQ

[47] = biological target: T47, 4H3855-bA
T47 chain: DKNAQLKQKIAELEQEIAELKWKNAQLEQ

[48] = biological target: T48, 4H968-bA
T48 chain: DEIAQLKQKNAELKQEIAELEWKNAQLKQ

[49] = biological target: T49, 4H3782-bA
T49 chain: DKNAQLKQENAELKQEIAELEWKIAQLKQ

B1: O4-bN (peptide)
chain: DKIQQLKQEIQELEQKNQELKWKNQELKQ
- interaction score [1]: -0.542
- interaction score [2]: -0.226
- interaction score [3]: 0.639
- interaction score [4]: -0.553
- interaction score [5]: -0.492
- interaction score [6]: -0.666

B3: O4-bH (peptide)
chain: DKIQELKKEIEELERKNWELKKKNQELKR
- interaction score [13]: 1.07
- interaction score [14]: 0.0257
- interaction score [15]: 0.376
- interaction score [16]: -1.47
- interaction score [17]: -2.1
- interaction score [18]: -1.04

The next lines start with the values.

- interaction score [7]: 0.131
- interaction score [8]: -1.3
- interaction score [9]: -1.87
- interaction score [10]: 1.82
- interaction score [11]: 0.618
- interaction score [12]: -1.16
B2: 4H570-bN (peptide)
chain: DEIQQLKQEIQELEQKNQELKWEIQELKQ

- interaction score [19]: -0.984
- interaction score [20]: 0.496
- interaction score [21]: -0.509
- interaction score [22]: 1.55
- interaction score [23]: -1.88
- interaction score [24]: -0.483
- interaction score [25]: -1.31
- interaction score [26]: 0.0545
- interaction score [27]: -0.342
- interaction score [28]: -0.567
- interaction score [29]: -0.842
- interaction score [30]: 0.791
- interaction score [31]: 1.01
- interaction score [32]: 0.267
- interaction score [33]: 0.364
- interaction score [34]: -0.379
- interaction score [35]: -0.715
- interaction score [36]: 0.447
- interaction score [37]: -1.13
- interaction score [38]: 1.17
- interaction score [39]: 1.32
- interaction score [40]: -1.72
- interaction score [41]: -0.0408
- interaction score [42]: -0.587
- interaction score [43]: -0.643
- interaction score [44]: -0.233
- interaction score [45]: 0.000615
- interaction score [46]: -0.41
- interaction score [47]: -0.227
- interaction score [48]: -1.09
- interaction score [49]: -0.731
B4: 4H3112-bA (peptide)
chain: DKNAQLEQEIAELEQKIAELEWKNAQLKQ
